Results as given in doi:10.1101/2020.04.01.839274 (bioRxiv, 2020).

Columns and labels:
[1] = target: Myc-tagged mouse EXOSC5 p.Thr114Ile (mouse, UniProt Q9CRA8 1-235, T114I); assay: co-IP
[2] = target: Myc-tagged mouse EXOSC5 p.Leu206His (mouse, UniProt Q9CRA8 1-235, L206H); assay: co-IP
Chain of Myc-tagged mouse EXOSC5 p.Leu206His (Q9CRA8 whole entry L206H): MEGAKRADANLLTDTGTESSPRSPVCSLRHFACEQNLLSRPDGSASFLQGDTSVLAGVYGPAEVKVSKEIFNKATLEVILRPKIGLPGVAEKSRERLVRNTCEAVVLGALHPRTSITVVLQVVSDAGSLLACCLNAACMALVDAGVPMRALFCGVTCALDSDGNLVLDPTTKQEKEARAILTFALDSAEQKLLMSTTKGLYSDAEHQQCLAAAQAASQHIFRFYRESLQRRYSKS

Chain of Myc-tagged mouse EXOSC5 p.Thr114Ile (Q9CRA8 whole entry T114I): as the sequence (Q9CRA8 whole entry L206H) above, with T114I, H206L counted along it

Binder	% EXOSC subunit bound relative to wild-type EXOSC5 [1] [%]	% EXOSC subunit bound relative to wild-type EXOSC5 [2] [%]
endogenous EXOSC3 (natural protein, mouse (endogenous in Neuro-2a), UniProt Q7TQK4 1-274, looked up) MAEVLSAGPESVAGCRARAVHKVLNQVVLPGEELVLPDHEDVDGLGGAGEQPLRLNAGARPRLRVVCGPGLRRCGDRLLVTKCGRLRHKEPSGGGGGVYWVDSQQKRYVPVKGDHVIGIVIAKSGDIFKVDVGGSEPASLSYLAFEGATKRNRPNVQVGDLIYGQCVVANKDMEPEMVCIDSCGRANGMGVIGQDGLLFKVTLGLIRKLLAPDCEIVQELGKLYPLEIVFGMNGRIWVKAKTIQQTLILANVLEACEHMTTEQRKQIFARLAES	28	9
endogenous EXOSC9 (natural protein, mouse (endogenous in Neuro-2a), UniProt Q9JHI7 1-438, looked up) MKETPLSNCERRFLLRAIEEKKRLDGRQTYDYRNIRISFGTDYGCCIVELGKTRVLGQVSCELVSPKLNRATEGILFFNLELSQMAAPAFEPGRQSDLLVKLNRLLERCLRNSKCIDTESLCVVAGEKVWQIRVDLHLLNHDGNIIDAASIAAIVALCHFRRPDVSVQGEEVTLYTPEERDPVPLSIHHMPICVSFAFFQQGTYLLVDPNEREERVMDGLLVIAMNKHREICTIQSSGGIMLLKDQVFRCSKIAGVKVAEITELIQKALENDQRVRKEGGKFGFAESIANQRITAFKMETAPIDTSNIEERAEEIIAEAEPPPEVVSQPVLWTPGTAQIGDGIENSWGDLEDSEKEEEEEEGGIDEAVILDDTKMDTGEVSDIGSQGAPIVLSDSEEEEMIILEPEKNPKKIRAQTSANQKAPSKGQGKRKKKKRTAN	24	16
endogenous EXOSC10 (natural protein, mouse (endogenous in Neuro-2a), UniProt P56960 1-887, looked up) MAPPSPREHQSAPATSATKPDAEMVLPGFPDADSFVKFALGSVVAVTKASGGLPQFGDEYDFYRSFPAFQAFCETQGDRLLQCMSRVMQYHGCRSNIKDRSKVTELEDKFDLLVDTNDVILERVGMLLDEASGVNKHQQPVLPAGLQVPKTIVSSWNRKAGEYGKKAKSETFRLLHAKNIVRPQLRFREKIDNSNTPFLPKIFVKPNARKPLPLALSKERRERPQDRPEDLDVPPALADFIHQQRTQQVEQDMFAHPYQYELDHFTPPQSVLQRPKPQLYRAVGETPCHLVSSLDELVELNEKLLGCQEFAVDLEHHSYRSFLGLTCLMQISTRTEDFIVDTLELRSDMYILNESLTDPAIVKVFHGADSDIEWLQKDFGLYVVNMFDTHQAARLLNLARHSLDHLLRLYCGVESNKQYQLADWRIRPLPEEMLSYARDDTHYLLYIYDRMRLELWERGNHQPVQLQVVWQRSRDICLKKFVKPIFTDESYLELYRKQKKHLNSQQLTAFQLLFAWRDKTARREDESYGYVLPNHMMLKIAEELPKEPQGIIACCNPVPPLVRQQINEMHLLIQQAREMPLLKSENAAGVRKSGPLPSAERLENDLFGPHDCSHAPPDNYQNTSTDGTLPLQKQPSLFTEGKEETSVDAGCLLATAVITLFSEPNTEEGGKTPLTVAQKKAQNIMQSFENPFRMFLPSLEHKAHISQAAKFDPSSKIYEISNRWKLASQVQVQKEPKEATKKKVAEQTAAREEAKEEAAAGVLEQAIPVRQQAALENATKKRERATSDLRTIEQKQEKKRLKSSKKAKDPDPPGKDFSPYDYSQSDFRAFAGDSKSKPSSQFDPNKLAPSGKKGVGAKKCKQSVGNKSMSFAVGKSDRGFRHNWPKR	40	21
